The values below come from patent US20080069777A1 (CBR INSTITUTE FOR BIOMEDICAL RESEARCH, published 2008).

Broadly, the IC50 is the concentration that gives 50% inhibition.

Assay [1] addresses T1, human wild-type LFA-1 on cells (human, UniProt P20701 26-1170; P05107 23-769).
T1 construct: also called LFA-1 on human PBMCs
The assay is described as follows: inhibition of ICAM binding to human PBMCs; average of four experiments.

The target in assay [2] is T2, mouse LFA-1 on the EL4 cell line (mouse, UniProt P24063 24-1162; P11835 24-771).
T2 construct: whole, on cells; also called Mouse EL4 Cell line
Nature of the assay: binding to EL4 cell line, no treatment.

In assay [3] the target is T3, rabbit LFA-1 on PBMCs (rabbit, UniProt A0A5F9C4C9 27-1127; A0A5F9CF43 23-747).
T3 construct: whole, on cells; also called rabbit PBMCs
Nature of the assay: flow cytometry on PBMCs, no treatment. Here is the method: Whole blood from healthy animals (rat, sheep, rabbit, dog, rhesus monkey, cynomologus monkey and chimpanzee) were obtained from Valley Biomedical Products and Services, Inc. PBMCs were isolated from whole blood and cultured in low adherent 6-well plates overnight in RPMI 1640 with 10% FBS, 1× Pen/Strep. PBMCs were harvested, washed once with Hanks' Balanced Salt Solution (HBSS) 1×, 20 mM HEPES buffer containing 10 mM EDTA, and then twice with HBS. Cells were resuspended in HBSS at 2×10⁶ cells/ml, 100 μl aliquots per well were added into 96-well plates (Costar round bottom). After spinning down, cell pellets were resuspended in 50 μl activating buffer (HBSS, 10 mM MgCl₂, 2 mM EGTA) or inactivating buffer (HBSS, 2 mM CaCl₂, 2 mM MgCl₂). For certain wells, PMA or DTT was added to a final concentration of 10 ng/ml or 500 μM, respectively. Cells were then incubated at 37° C. for 20 minutes.
Antibodies that recognized CD-11a from the particular species (human, sheep, dog, rat, rabbit) (1:100 dilution) were used as positive controls. […] Cells were incubated at 4° C. for 30 minutes, then washed twice with 220 μl/well HBSS containing 0.05% NaN₃, resuspended in 200 μl/well HBSS and analyzed using the GUAVA EXPRESS™ protocol (Guava Technologies, Inc., Hayward Calif.).
In general terms: Flow cytometry measures light scatter and fluorescence of single cells or particles in a stream.

T1 sequence (P20701 other isoform, or with tags, fused parts or gaps limits assumed, chain 1 of 2): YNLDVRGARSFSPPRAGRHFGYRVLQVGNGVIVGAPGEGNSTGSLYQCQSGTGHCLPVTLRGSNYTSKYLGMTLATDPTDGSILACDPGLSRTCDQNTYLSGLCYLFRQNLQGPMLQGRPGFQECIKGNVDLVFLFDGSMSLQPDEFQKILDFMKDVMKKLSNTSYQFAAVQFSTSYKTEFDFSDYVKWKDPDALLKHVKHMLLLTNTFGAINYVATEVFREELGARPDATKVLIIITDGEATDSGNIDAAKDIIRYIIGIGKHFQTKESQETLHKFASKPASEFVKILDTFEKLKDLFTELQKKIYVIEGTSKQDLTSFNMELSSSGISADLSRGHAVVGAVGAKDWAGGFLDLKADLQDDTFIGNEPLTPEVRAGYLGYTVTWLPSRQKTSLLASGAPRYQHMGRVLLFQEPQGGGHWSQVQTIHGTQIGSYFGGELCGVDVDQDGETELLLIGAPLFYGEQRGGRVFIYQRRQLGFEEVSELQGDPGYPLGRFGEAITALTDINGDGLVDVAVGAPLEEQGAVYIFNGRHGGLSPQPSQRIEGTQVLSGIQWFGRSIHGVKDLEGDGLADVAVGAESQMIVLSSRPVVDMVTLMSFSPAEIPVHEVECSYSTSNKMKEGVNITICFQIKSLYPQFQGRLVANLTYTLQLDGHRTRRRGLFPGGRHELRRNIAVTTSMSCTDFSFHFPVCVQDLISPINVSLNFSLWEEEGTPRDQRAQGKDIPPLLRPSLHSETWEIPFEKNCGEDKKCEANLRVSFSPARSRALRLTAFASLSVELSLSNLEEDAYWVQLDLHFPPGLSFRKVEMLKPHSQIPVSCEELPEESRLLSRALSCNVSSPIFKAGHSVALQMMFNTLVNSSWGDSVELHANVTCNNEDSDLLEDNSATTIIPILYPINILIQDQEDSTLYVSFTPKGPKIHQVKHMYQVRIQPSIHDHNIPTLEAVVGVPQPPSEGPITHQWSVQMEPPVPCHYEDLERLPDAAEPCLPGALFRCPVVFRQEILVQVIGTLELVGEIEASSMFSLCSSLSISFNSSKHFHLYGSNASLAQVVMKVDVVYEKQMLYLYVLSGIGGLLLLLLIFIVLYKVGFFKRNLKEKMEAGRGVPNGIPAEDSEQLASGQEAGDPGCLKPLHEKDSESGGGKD
T1 sequence (P05107 other isoform, or with tags, fused parts or gaps limits assumed, chain 2 of 2): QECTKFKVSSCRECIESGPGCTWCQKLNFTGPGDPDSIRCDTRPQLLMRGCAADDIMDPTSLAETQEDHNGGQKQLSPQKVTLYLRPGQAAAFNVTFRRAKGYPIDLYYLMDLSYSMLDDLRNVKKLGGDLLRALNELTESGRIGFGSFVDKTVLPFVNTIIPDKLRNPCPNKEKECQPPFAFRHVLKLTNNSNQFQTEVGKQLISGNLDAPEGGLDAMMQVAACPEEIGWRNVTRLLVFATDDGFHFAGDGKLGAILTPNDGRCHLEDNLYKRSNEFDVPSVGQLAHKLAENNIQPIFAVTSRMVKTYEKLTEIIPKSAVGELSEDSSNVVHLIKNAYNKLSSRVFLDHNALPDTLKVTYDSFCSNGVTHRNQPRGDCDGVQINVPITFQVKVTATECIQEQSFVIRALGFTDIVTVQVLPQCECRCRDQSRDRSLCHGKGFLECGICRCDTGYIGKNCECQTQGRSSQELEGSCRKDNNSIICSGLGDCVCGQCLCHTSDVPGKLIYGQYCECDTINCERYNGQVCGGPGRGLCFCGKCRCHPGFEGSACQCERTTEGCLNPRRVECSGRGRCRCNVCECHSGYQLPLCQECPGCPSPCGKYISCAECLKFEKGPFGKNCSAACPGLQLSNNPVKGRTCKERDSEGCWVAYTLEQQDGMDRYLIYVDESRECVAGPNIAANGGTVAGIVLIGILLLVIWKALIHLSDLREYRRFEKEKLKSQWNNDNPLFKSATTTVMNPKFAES
T2 sequence (P24063 24-1162, chain 1 of 2): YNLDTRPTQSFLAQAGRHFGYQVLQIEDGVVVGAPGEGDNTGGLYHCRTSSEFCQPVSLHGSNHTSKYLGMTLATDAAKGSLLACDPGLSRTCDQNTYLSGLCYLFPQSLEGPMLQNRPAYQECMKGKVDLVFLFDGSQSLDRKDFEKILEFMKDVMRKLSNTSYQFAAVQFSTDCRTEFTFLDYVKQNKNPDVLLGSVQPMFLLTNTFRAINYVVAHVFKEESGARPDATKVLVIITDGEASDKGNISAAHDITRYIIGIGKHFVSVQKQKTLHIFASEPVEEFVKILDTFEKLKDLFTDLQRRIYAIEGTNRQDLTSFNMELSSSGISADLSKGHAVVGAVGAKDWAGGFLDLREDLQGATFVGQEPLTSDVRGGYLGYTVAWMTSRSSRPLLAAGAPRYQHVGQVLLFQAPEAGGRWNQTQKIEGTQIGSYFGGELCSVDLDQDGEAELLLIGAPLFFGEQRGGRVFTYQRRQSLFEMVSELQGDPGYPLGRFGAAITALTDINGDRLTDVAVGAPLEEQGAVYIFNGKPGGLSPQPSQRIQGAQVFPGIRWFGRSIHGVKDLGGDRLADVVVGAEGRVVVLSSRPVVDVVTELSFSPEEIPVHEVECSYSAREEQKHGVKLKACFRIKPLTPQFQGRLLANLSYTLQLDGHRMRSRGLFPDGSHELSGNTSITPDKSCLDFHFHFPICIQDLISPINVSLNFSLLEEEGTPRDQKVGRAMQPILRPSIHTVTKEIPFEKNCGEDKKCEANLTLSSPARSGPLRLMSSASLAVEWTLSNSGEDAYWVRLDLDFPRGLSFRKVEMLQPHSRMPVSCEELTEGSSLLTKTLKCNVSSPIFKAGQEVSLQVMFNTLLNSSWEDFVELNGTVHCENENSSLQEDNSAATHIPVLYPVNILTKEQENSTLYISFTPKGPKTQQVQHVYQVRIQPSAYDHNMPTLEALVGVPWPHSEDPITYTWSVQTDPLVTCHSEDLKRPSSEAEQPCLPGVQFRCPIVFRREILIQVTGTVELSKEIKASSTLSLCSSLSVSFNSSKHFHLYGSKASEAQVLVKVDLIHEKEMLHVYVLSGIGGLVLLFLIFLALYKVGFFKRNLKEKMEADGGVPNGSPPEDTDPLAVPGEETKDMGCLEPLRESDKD
T2 sequence (P11835 24-771, chain 2 of 2): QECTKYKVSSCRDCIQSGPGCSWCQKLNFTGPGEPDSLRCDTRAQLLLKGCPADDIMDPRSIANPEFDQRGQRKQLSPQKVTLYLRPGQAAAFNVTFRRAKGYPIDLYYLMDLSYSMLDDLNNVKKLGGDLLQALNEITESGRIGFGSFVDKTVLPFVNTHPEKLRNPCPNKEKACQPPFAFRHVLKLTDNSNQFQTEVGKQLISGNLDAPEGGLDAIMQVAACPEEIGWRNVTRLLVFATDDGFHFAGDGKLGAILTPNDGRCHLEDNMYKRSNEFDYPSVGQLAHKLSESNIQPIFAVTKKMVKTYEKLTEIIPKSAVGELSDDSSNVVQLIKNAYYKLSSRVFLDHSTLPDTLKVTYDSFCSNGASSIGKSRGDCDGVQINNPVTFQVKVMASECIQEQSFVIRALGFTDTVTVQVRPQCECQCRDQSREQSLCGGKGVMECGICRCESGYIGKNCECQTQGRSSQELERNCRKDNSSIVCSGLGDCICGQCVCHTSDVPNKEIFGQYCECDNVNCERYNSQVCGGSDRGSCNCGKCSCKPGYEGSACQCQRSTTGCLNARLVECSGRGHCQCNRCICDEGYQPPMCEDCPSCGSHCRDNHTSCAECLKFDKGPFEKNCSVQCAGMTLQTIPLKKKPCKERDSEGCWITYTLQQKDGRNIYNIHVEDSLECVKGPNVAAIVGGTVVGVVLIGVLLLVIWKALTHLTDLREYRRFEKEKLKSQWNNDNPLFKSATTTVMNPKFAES

B1: D2-57 IgG1 (antibody, V domains shown)
VH: EVQLLESGGGLVQPGGSLRLSCAASGFTFSRYVMWWVRQAPGKGLEWVSYIWPSGGNTYYADSVKGRFTISRDNSKNTLYLQMNSLRAEDTAVYYCASSYDFWSNAFDIWGQGTMVTVSS
VL: DIQMTQSPSSLSASVGDRVTITCRASQSIGSYLNWYQQKTGKAPKALIYAASSLQSGVPSRFSGSGSGTDFTLTISSLQLEDFATYYCQQSYSTPSFGQGTKVEIKR
With B1, the IC50 in assay [1] stood at 0.54 nM.

B2: DX-2001 (germlined variant of D2-57, IgG4) (antibody, V domains shown)
VH: EVQLLESGGGLVQPGGSLRLSCAASGFTFSRYVMWWVRQAPGKGLEWVSYIWPSGGNTYYADSVKGRFTISRDNSKNTLYLQMNSLRAEDTAVYYCASSYDFWSNAFDIWGQGTMVTVSS
VL: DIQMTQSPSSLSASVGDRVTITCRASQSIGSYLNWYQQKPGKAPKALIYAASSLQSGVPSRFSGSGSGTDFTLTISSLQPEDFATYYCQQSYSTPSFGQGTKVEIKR
In the case of B2, the figures for the binding result in assay [2] and in assay [3] were “no binding” and “no binding (tested: 10 µg/ml)”, respectively.
